# In patent US20240024477A1:
# Target: HLA-E bound RL9 presented on cells with their own HLA-E (RL9 pulsed autologous B cells (human; HIV-1) (UniProt P13747)
# Assay: cell-based or functional assay
substance,measurement,value
"irrelevant TCR specific for HLAA*0201-NY-ESO-1157-165 (…) (IG4), transduced into CD8 T cells","reduction of % p24+ cells, HIV-1 NL4.3-infected primary CD4+ T cells, E:T 5:1",23.5%
